Columns and labels:
human FAP on cells = target: T1, human FAP on cells (human, UniProt Q12884 1-760); assay: cell-based or functional assay
T1 sequence: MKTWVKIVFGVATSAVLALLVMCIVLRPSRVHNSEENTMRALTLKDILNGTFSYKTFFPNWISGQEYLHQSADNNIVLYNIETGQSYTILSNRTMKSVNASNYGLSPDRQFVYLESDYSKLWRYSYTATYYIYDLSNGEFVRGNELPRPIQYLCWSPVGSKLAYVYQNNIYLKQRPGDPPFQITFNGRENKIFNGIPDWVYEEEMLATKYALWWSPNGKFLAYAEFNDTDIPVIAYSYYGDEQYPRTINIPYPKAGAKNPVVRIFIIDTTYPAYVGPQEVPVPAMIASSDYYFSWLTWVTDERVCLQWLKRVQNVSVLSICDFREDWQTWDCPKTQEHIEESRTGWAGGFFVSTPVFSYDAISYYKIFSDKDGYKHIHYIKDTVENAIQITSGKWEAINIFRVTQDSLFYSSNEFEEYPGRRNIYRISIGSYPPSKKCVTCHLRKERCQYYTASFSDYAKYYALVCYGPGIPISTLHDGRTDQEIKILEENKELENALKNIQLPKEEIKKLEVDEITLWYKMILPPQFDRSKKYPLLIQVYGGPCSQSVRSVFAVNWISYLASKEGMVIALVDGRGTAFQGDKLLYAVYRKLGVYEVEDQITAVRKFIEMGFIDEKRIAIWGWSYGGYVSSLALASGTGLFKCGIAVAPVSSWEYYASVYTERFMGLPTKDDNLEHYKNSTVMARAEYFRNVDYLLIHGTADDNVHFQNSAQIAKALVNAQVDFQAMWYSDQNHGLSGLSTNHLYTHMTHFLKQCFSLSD

soluble FAP = target: T2, soluble FAP (human, UniProt Q12884 26-760, limits assumed); assay: cell-based or functional assay
T2 sequence: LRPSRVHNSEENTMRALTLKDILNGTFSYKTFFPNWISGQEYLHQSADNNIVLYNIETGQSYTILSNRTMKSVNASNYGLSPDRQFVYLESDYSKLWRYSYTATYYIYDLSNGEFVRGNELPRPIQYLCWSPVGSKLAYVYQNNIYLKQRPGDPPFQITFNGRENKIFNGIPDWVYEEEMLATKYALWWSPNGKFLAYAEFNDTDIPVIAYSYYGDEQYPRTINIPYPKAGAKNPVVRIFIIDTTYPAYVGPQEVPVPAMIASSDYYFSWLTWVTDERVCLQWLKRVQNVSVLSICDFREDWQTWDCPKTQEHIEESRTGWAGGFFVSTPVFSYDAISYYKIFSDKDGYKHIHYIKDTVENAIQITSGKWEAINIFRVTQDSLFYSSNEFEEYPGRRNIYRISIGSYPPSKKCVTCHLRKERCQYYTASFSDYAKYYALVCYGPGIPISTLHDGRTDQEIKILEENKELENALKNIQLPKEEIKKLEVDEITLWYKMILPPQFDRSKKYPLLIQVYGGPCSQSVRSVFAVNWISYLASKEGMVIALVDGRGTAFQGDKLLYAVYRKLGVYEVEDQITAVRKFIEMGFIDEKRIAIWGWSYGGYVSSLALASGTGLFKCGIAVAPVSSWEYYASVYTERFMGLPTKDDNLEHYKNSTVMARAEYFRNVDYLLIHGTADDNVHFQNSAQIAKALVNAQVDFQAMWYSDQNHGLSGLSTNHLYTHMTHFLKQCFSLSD

cyno CD40 on B cells = target: T3, cyno CD40 on B cells (cynomolgus monkey, UniProt G7PG38 21-278); assay: binding to cyno CD40-positive B cells
T3 construct: whole, on cells; also called Cyno CD40-positive B cell

FcγRI (CD64) = target: T4, FcγRI (CD64) (UniProt P12314 16-288, limits assumed); assay: SPR, Biacore S200, antibody captured on Protein A chip, FcγR as analyte
T4 construct: also called FcγR1 (CD64); FcγR1
T4 sequence (P12314 16-288 limits assumed): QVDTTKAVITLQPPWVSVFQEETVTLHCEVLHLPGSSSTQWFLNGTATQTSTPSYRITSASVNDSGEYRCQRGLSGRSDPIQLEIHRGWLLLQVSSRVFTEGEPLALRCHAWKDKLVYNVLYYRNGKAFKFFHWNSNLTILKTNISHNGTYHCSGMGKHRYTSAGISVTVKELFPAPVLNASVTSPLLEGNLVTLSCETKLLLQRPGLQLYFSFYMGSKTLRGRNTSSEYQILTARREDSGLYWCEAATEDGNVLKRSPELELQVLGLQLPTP
Method: (§1) Binding of CD40.9H3×FAP.LP62 and the analog of RO7300490 to various Fc gamma receptors (FcγR1 (CD64), FcγRIIIA (CD16a), FcγRIIIB (CD16b), FcγRIIA (CD32a), FcγRIIB (CD32b)) was determined in an analyte/capture assay in vitro. Briefly, an SPR assay was performed using a Biacore S200 with a Biacore Series S Protein A chip (Cytiva). All antibodies were prepared at 4.0 μg/ml in 1×HBS-EP+ running buffer (Cytiva) and captured onto flow cells 2, 3, and 4 through a 60 second contact time at 10 μl/min. An analyte series of the FcγRs (BMS In-House Produced) were prepared at 10,000 nM in 1×HBS-EP+ with eight, three-fold dilutions. Kinetic measurements were conducted with a 120 second association followed by a 120 second dissociation at 30 μl/min. Surface regeneration was preformed by 60 second contact time of 50 mM Glycine pH 1.5 solution (Cytiva) at 30 μl/min. Data was processed in Biacore Insight Evaluation Version 5 (Cytiva). Sensorgrams were double referenced and globally fit to a 1:1 Langmuir model were applicable. Where 1:1 model was not sufficient to describe the interaction (fast-on and fast-off rates), steady state equilibrium fitting was used to determine the equilibrium constant.

FcγRIIIB (CD16b) = FcγRIIIB (CD16b) (UniProt O75015 17-200, limits assumed); assay: as above
Chain of FcγRIIIB (CD16b) (O75015 17-200 limits assumed): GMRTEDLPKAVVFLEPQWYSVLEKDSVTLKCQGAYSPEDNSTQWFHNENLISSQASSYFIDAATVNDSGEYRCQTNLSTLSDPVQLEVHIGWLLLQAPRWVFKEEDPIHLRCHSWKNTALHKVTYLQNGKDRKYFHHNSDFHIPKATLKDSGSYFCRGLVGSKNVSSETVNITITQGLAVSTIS
Method: as §1

FcγRIIB (CD32b) = target: T5, FcγRIIB (CD32b) (UniProt P31994 43-217, limits assumed); assay: as above
T5 sequence (looked up): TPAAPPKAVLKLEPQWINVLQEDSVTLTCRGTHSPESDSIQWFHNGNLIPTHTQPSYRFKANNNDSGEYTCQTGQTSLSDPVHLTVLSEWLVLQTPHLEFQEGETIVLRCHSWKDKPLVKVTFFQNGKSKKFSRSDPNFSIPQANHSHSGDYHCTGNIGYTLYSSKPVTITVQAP
Method: as §1

FcγRIIA (CD32a) = target: T6, FcγRIIA (CD32a) (UniProt P12318 34-217, limits assumed); assay: as above
T6 sequence (looked up): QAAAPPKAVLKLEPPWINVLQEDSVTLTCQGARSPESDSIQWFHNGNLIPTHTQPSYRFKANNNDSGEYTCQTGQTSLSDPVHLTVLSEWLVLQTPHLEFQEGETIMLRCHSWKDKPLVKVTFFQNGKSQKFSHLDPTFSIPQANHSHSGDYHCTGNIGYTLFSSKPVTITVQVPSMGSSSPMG
Method: as §1

FcγRIIIA (CD16a) = FcγRIIIA (CD16a) (UniProt P08637 17-208, limits assumed); assay: as above
Chain of FcγRIIIA (CD16a) (P08637 17-208 limits assumed): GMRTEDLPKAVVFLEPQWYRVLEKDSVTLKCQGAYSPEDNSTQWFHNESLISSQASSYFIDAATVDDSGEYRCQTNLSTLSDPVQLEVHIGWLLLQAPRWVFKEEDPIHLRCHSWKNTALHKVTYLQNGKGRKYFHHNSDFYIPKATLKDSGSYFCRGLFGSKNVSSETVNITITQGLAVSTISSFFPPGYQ
Method: as §1

- IL12p40 secretion, human DC + HFF1 co-culture, EC50 (human FAP on cells): 0.079 nM
- TNFα release, CD40-positive macrophages + HFF1 co-culture, EC50 (human FAP on cells): 0.12 nM
- fold reduction in potency of IL12p40 secretion with 120 ng/mL soluble FAP (soluble FAP): 4.2 fold
- fold reduction in potency of IL12p40 secretion with 480 ng/mL soluble FAP (soluble FAP): 7.5 fold
- EC50 (cyno CD40 on B cells): 4.69 nM
- binding result (FcγRI (CD64)): no binding
- binding result (FcγRIIIB (CD16b)): no binding
- binding result (FcγRIIB (CD32b)): no binding
- binding result (FcγRIIA (CD32a)): no binding
- binding result (FcγRIIIA (CD16a)): no binding
B1: CD40.9H3×FAP.LP62 bispecific antibody (bispecific antibody, human IgG1, kappa, L234A L235A)
heavy 1: EVQLVESGGGLVQPGGSLRLSCAASGFTFIGYSMNWVRQAPGKGLEWVSYISSYESTIYYADSVKGRFTISRDNAKNSLYLQMNSLRAEDTAVYYCARSRITLVRGVPRYFDLWGRGTLVTVSSASTKGPSVFPLAPSSKSTSGGTAALGCLVKDYFPEPVTVSWNSGALTSGVHTFPAVLQSSGLYSLSSVVTVPSSSLGTQTYICNVNHKPSNTKVDKKVEPKSCDKTHTCPPCPAPEAAGGPSVFLFPPKPKDTLMISRTPEVTCVVVSVSHEDPEVKFNWYVDGVEVHNAKTKPREEQYNSTYRVVSVLTVLHQDWLNGKEYKCKVSNKALPAPIEKTISKAKGQPREPQVYVLPPSREEMTKNQVSLLCLVKGFYPSDIAVEWESNGQPENNYLTWPPVLDSDGSFFLYSKLTVDKSRWQQGNVFSCSVMHEALHNHYTQKSLSLSPG
heavy 2: EVQLVESGGGLVQPGGSLRLSCAASGFTFIGYSMNWVRQAPGKGLEWVSYISSYESTIYYADSVKGRFTISRDNAKNSLYLQMNSLRAEDTAVYYCARSRITLVRGVPRYFDLWGRGTLVTVSSASTKGPSVFPLAPSSKSTSGGTAALGCLVKDYFPEPVTVSWNSGALTSGVHTFPAVLQSSGLYSLSSVVTVPSSSLGTQTYICNVNHKPSNTKVDKKVEPKSCDKTHTCPPCPAPEAAGGPSVFLFPPKPKDTLMISRTPEVTCVVVSVSHEDPEVKFNWYVDGVEVHNAKTKPREEQYNSTYRVVSVLTVLHQDWLNGKEYKCKVSNKALPAPIEKTISKAKGQPREPQVYVYPPSREEMTKNQVSLTCLVKGFYPSDIAVEWESNGQPENNYKTTPPVLDSDGSFALVSKLTVDKSRWQQGNVFSCSVMHEALHNHYTQKSLSLSPGGGSGGGGSGGGGSGGGGSEVQLLESGGGLVQPGGSLRLSCAASGFTFSSRGMSWVRQAPGKCLEWVSFISSSGTYVYYADSVKGRFTISRDNSKNTLYLQMNSLRAEDTAVYYCARDLPRTGVYFGMDVWGQGTTVTVSSGGGGSGGGGSGGGGSGGGGSDIQMTQSPSSLSASVGDRVTITCRASQSIFNYLNWYQQKPGKAPKLLIYGASTLQSGVPSRFSGSGSGTDFTLTISSLQPEDFATYYCQESYSTPYTFGCGTKVEIK
light: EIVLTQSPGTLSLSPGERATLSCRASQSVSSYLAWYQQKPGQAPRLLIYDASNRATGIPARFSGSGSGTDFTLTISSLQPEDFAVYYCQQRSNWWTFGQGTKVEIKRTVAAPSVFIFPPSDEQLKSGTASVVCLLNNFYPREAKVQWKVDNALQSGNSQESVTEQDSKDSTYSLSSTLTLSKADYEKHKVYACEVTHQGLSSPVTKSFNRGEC
notes: 2+1 format: two anti-CD40 9H3 Fabs on an IgG1 Fc with L234A, L235A, D265S and heterodimerization mutations; Ratio 1:1:2
